# B1: C002 IgG (antibody, V domains shown)
# VH: EVQLVESGGGVVQPGRSLRLSCAASGFTFSIYGMHWVRQAPGKGLEWVAVISYDGSNKYYADSVKGRFTISRDNSKNTLYLQMNSLRAEDTAVYYCAKEGRPSDIVVVVAFDYWGQGTLVTVSS
# VL: not shown
# B2: C110 IgG (antibody, V domains shown)
# VH: QVQLQQSGAEVKKPGESLKISCKGSGYSFTSYWIGWVRQMPGKGLEWMGIIYPGDSDTRYSPSFQGQVTISADKSISTAYMQWSSLKASDTAMYYCARSFRDDPRIAVAGPADAFDIWGQGTMVTVSS
# VL: DIQMTQSPSTLSASVGDRVTITCRASQSISYWLAWYQQKPGKAPKLLIYQASSLESGVPSRFSGSESGTEFTLTISSLQPDDFATYYCQQYNSYPYTFGQGTKLEIK
# B3: C105 IgG (antibody, V domains shown)
# VH: QVQLVESGGGLIQPGGSLRLSCAASGFTVSSNYMSWVRQAPGKGLEWVSVIYSGGSTYYADSVKGRFTISRDNSKNTLYLQMNSLRAEDTAVYYCARGEGWELPYDYWGQGTLVTVSS
# VL: QSALTQPPSASGSPGQSVTISCTGTSSDVGGYKYVSWYQQHPGKAPKLMIYEVSKRPSGVPDRFSGSKSGNTASLTVSGLQAEDEADYYCSSYEGSNNFVVFGGGTKLTVL
# B4: C104 IgG (antibody, V domains shown)
# VH: QVQLQQWGAGLLKPSETLSLSCAVYGGSLSGYYWSWIRQPPGKGLEWIGEINHFGSTGYNPSLKSRVTISVDTSKSQFSVKLSSVTAADTAVYYCARKPLLYSNLSPGAFDIWGQGTMVTVSS
# VL: EIVLTQSPGTVSLSPGERATLSCWASQSVSASYLAWYQQKPGQAPRLLIYGASSRATGIPDRFSGSGSGTDFTLTISRLEPEDFAVYYCQQYGTTPRTFGGGTKVEIK
# B5: C119 IgG (antibody, V domains shown)
# VH: QVQLVQSGAEVKKPGASVKVSCKASGYTFTSYYMHWVRQAPGQGLEWMGIINPSGGSTSYAQKLQGRVTMTRDTSTSTVYMELSSLRSEDTAVYYCARANHETTMDTYYYYYYMDVWGKGTTVTVSS
# VL: QSALTQPASVSGSPGQSITISCTGTSSDVGGYKYVSWYQRHPGKAPKLMIYDVSNRPSGVSNRFSGSKSGNTASLTISGLQAEDEADYYCSSYTSSSTSVVFGGGTQLTVL
# B6: C121 IgG (antibody, V domains shown)
# VH: not shown
# VL: QSALTQPASVSGSPGQSITISCTGTSSDVGSYNLVSWYQQHPGKAPKLMIYEGSKRPSGVSNRFSGSKSGNTASLTISGLQAEDEADYYCCSYAGSSTLVFGGGTKLTVL
# Molecular target: SARS-CoV-2 RBD (receptor-binding domain of S, residues 331-524) (SARS-CoV-2, UniProt P0DTC2)
# Assay: SPR
row,Binder,binding result
1,B1,binds
2,B2,binds
3,B3,binds
4,B4,binds
5,B5,binds
6,B6,binds

# — article PMC8092461 (Nature, 2020)
